# System: Escherichia coli TOP10
# Assay: shrunken log2 fold change of peptide-encoding DNA abundance (4.5 h post-induction vs induction); higher = less antimicrobial activity (less host growth inhibition)
# Settings: time post-induction: 4.5 h; library: site-saturation at positions 5, 18, 19, 20
# 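Also: peptides expressed intracellularly from a pBAD plasmid library in pooled LB shake-flask culture, induced with 0.3% L-arabinose, DNA abundance read by NGS, three biological replicates, DESeq2 with apeglm shrinkage.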
row,Sequence,shrunken log2 fold change
1,RRIRYRPPRLPRPRPRPYPYPRP,-0.0257
2,RRIRYRPPRLPRPRPRPYRMPRP,-0.725
3,RRIRYRPPRLPRPRPRPYRNPRP,-0.0228
4,RRIRYRPPRLPRPRPRPYSMPRP,-0.0134
5,RRIRYRPPRLPRPRPRPYSVPRP,-0.0202
6,RRIRYRPPRLPRPRPRPYTQPRP,-0.273
7,RRIRYRPPRLPRPRPRPYVIPRP,-1.19
8,RRIRYRPPRLPRPRPRPYVTPRP,-0.115
9,RRIRYRPPRLPRPRPRPYWRPRP,0.0608
10,RRIRYRPPRLPRPRPRPYYEPRP,-0.28
11,RRIRYRPPRLPRPRPRPYYHPRP,-0.283
